Results published in PMC4813464, “Recombinant Collagen Engineered to Bind to Discoidin Domain Receptor Functions as a Receptor Inhibitor*” (The Journal of Biological Chemistry, 2015).

T1: Collagen type III, pepsin-extracted from bovine skin (bovine, UniProt P04258 1-1049, 4-hydroxyproline in Yaa positions (positions not listed))
T1 construct: bovine collagen alpha1(III) chain, pepsin-extracted from skin; Homotrimer of alpha1(III) chains; native triple helix unless denatured (90 °C, 30 min); also called Bovine Collage III; collagen III; source: pepsin-extracted from bovine skin (provided by Dr. John Ramshaw)
T1 sequence (looked up): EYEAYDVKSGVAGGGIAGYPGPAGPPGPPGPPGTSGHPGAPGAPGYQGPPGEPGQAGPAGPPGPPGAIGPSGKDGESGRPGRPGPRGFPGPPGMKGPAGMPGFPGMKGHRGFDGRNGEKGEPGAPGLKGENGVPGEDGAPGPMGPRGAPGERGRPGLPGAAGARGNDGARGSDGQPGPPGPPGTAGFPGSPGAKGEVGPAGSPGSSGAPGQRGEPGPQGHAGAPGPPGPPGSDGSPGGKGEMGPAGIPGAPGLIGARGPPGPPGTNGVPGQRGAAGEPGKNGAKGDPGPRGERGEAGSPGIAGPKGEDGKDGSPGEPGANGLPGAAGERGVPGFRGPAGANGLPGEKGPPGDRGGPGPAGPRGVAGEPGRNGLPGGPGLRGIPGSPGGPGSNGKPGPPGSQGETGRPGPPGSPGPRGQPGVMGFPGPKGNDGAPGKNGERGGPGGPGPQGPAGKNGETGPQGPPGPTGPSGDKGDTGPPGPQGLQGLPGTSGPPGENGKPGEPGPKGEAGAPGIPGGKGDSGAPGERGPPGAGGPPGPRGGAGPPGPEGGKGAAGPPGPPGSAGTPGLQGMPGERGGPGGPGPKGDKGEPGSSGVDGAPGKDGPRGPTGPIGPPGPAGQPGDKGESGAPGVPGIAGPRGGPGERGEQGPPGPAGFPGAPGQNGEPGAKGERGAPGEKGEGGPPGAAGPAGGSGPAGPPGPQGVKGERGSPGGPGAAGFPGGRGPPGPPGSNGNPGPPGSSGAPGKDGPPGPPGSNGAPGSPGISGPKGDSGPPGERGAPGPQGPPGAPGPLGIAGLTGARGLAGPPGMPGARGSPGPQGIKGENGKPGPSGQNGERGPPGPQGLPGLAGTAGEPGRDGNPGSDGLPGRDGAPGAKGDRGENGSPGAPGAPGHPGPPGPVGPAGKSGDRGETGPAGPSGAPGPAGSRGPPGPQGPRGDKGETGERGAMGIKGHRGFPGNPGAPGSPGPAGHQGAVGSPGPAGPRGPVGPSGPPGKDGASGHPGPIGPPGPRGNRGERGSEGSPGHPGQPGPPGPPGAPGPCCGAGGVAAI


Key:
Assay in all cases: ELISA; solid-phase binding assay: native (triple-helical) collagens coated at 200 μg/ml in PBS on Immulon 2HB plates overnight at 4 °C; DDR-Fc at 20 μg/ml (∼220 nM) or in a series of 0-60 μg/ml (0-667 nM) in PBS, 3 h at room temperature; anti-Fc detection, A450; apparent Kd from a one-site fit
[1] = target: SCl-DDR6 (bacterial collagen with six triplets of the human collagen III DDR-binding sequence) (Streptococcus pyogenes | human)
[2] = target: SCl-DDR4 (bacterial collagen with four triplets of the human collagen III DDR-binding sequence) (Streptococcus pyogenes | human)
[3] = target: T1, Collagen type III, pepsin-extracted …; settings: both partners purified

Row | Molecule | Kd [1] | Kd [2] | Kd [3]
1 | DDR1-Fc (recombinant human discoidin domain receptor 1 ectodomain, Fc-tagged) (from UniProt Q08345 21-417) (Fc fusion) | 66 nM | 53.3 nM | 
2 | DDR2-Fc (recombinant human discoidin domain receptor 2 ectodomain, Fc-tagged) (Fc fusion, UniProt Q16832 22-399, looked up, human discoidin domain receptor 2, ectodomain; In the functional rows the receptor was full-length DDR2 in HEK293 cells; also called DDR2 ectodomain; source: HEK293-EBNA, episomally transfected, purified (rProtein A)) KAQVNPAICRYPLGMSGGQIPDEDITASSQWSESTAAKYGRLDSEEGDGAWCPEIPVEPDDLKEFLQIDLHTLHFITLVGTQGRHAGGHGIEFAPMYKINYSRDGTRWISWRNRHGKQVLDGNSNPYDIFLKDLEPPIVARFVRFIPVTDHSMNVCMRVELYGCVWLDGLVSYNAPAGQQFVLPGGSIIYLNDSVYDGAVGYSMTEGLGQLTDGVSGLDDFTQTHEYHVWPGYDYVGWRNESATNGYIEIMFEFDRIRNFTTMKVHCNNMFAKGVKIFKEVQCYFRSEASEWEPNAISFPLVLDDVNPSARFVTVPLHHRMASAIKCQYHFADTWMMFSEITFQSDAAMYNNSEALPTSPMAPTTYDPMLKVDDSNTR | 69.7 nM | 81.2 nM | 20 ± 1.9 nM
3 | DDR1-Fc (recombinant human discoidin domain receptor 1 ectodomain, Fc-tagged) (Fc fusion, UniProt Q08345 21-417, looked up, human discoidin domain receptor 1, ectodomain; IgG1 Fc, R&D Systems) stood in which experiment; In the functional rows the receptor was full-length DDR1a in HEK293 cells or endogenous DDR1 on human megakaryocytes; also called DDR1 ectodomain; source: HEK293-EBNA, episomally transfected, purified (rProtein A) (IgG2 Fc); for some experiments bought: R&D Systems (IgG1 Fc)) DMKGHFDPAKCRYALGMQDRTIPDSDISASSSWSDSTAARHSRLESSDGDGAWCPAGSVFPKEEEYLQVDLQRLHLVALVGTQGRHAGGLGKEFSRSYRLRYSRDGRRWMGWKDRWGQEVISGNEDPEGVVLKDLGPPMVARLVRFYPRADRVMSVCLRVELYGCLWRDGLLSYTAPVGQTMYLSEAVYLNDSTYDGHTVGGLQYGGLGQLADGVVGLDDFRKSQELRVWPGYDYVGWSNHSFSSGYVEMEFEFDRLRAFQAMQVHCNNMHTLGARLPGGVECRFRRGPAMAWEGEPMRHNLGGNLGDPRARAVSVPLGGRVARFLQCRFLFAGPWLLFSEISFISDVVNNSSPALGGTFPPAPWWPPGPPPTNFSSLELEPRGQQPVAKAEGSPTA |  |  | 15.2 ± 0.9 nM
